In EP4790069A1 (Kyoto University, dated 2026):

Assays:
mouse CD153 = molecular target: T1, mouse CD153 (mouse, UniProt P32972 1-239); test: flow cytometry on EL4 cells stably expressing mouse CD153
T1 construct: whole, on cells; also called mCD153
T1 sequence (looked up): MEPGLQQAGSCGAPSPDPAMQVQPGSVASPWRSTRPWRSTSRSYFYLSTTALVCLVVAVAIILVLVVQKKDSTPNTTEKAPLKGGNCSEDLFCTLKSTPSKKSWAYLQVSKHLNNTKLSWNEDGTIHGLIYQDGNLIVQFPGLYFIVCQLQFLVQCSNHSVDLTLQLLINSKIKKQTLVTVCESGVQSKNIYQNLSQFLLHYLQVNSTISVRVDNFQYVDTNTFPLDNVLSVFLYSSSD

human CD153 = molecular target: T2, human CD153 (human, UniProt P32971 1-234); test: flow cytometry, hybridoma supernatant on 293H cells expressing hCD153
T2 construct: whole, on cells; also called hCD153; CD30L
T2 sequence (looked up): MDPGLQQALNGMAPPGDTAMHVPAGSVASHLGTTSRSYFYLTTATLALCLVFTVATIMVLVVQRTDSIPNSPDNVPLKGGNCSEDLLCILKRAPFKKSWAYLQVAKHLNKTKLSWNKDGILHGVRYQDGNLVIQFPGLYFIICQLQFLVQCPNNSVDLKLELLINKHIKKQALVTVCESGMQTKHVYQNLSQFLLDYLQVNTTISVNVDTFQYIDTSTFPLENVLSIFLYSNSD

B1: anti-human CD153 monoclonal antibody 2H7-9 (antibody, V domains shown)
VH: RVQLQQSGAELVRPGTSVKISCKASGYAFTNYWLGWVKQRPGHGLEWIGDIYPGNYNSYSNEKFKGKATLTADESSSTAYMQLSSLTSEDSAVYFCARIYGNYWIFDVWGAGTTVTVSS
VL: QIVLTQSPAIMSASPGEKVTMTCSASSSVNYMHWFQQKPGTSPKLWIYSTSDLASGVPARFSGSGSGTSYSLTISRMEAEDAATYYCQQRSSYPLTFGAGTKLELK
notes: Mouse hybridoma antibody (CD153-KO B6 mouse), purified with Protein A and detected with anti-mouse IgG
Mouse CD153
  binding result: no binding (tested: 160 µg/ml to 0.00977 µg/ml)
Human CD153
  binding result: binds
